Source: PMC6747709 (2019)
Read-outs that look alike come from different tables or passages of the source.

Experiments:
Assay in all cases: SPR
[1] = target: T1, CD47 extracellular domain (UniProt Q08722, biotin (enzymatically biotinylated; stated for the SPR experiment))
[2] = target: T1, CD47 extracellular domain; remark: listed apart in the source
[3] = target: T1, CD47 extracellular domain; remark: listed apart in the source
[4] = target: T1, CD47 extracellular domain; remark: listed apart in the source
[5] = target: T1, CD47 extracellular domain; remark: listed apart in the source
[6] = target: T1, CD47 extracellular domain; remark: listed apart in the source

T1 sequence (Q08722 19-141): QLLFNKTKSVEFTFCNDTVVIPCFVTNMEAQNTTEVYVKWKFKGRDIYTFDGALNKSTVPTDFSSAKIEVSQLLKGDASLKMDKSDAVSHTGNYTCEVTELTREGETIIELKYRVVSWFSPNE

B1: Nb02 mutant M4 (VHH)
VHH: EVQLQASGGGLVQAGGSLRLSCAASGFTNERSQNMGWFRQAPGKEREGVACIQSRVVECWYADSVKGRFTISRDNAKNTVYLQMNSLKPEDTAVYYCAAPRAITGHSAVGEHMCDYWGQGTQVTVSS
koff [1]: 0.000392 s⁻¹

B2: Nb02 mutant M6 (VHH)
VHH: EVQLQASGGGLVQAGGSLRLSCAASGFTNERSQNMGWFRQAPGKEREGVACIQSRVVECWYADSVKGRFTISRDNAKNTVYLQMNSLKPEDTAVYYCAAPRAITWHVFVGEHMCDYWGQGTQVTVSS
koff [2]: 0.000117 s⁻¹

B3: Nb02 mutant M3 (VHH)
VHH: EVQLQASGGGLVQAGGSLRLSCAASGFTNERSQNMGWFRQAPGKEREGVACIQSRVVECWYADSVKGRFTISRDNAKNTVYLQMNSLKPEDTAVYYCAAPRAITGHVFVGEHMCDYWGQGTQVTVSS
koff [3]: 0.000312 s⁻¹

B4: Nb02 mutant M2 (VHH)
VHH: EVQLQASGGGLVQAGGSLRLSCAASGFTNERSQNMGWFRQAPGKEREGVACIQSRVVECWYADSVKGRFTISRDNAKNTVYLQMNSLKPEDTAVYYCAAPRAITWTVFVGEHMCDYWGQGTQVTVSS
koff [4]: 2.73e-05 s⁻¹

B5: Nb02 quadruple mutant M7 (G107W, T108H, S109V, F110A) (VHH)
VHH: EVQLQASGGGLVQAGGSLRLSCAASGFTNERSQNMGWFRQAPGKEREGVACISSRVVECWYADSVKGRFTISRDNAKNTVYLQMNSLKPEDTAVYYCAAPRAITWHVAVGEHMCDYWGQGTQVTVSS
koff [5]: 4.04e-05 s⁻¹

B6: Nb02 mutant M1 (VHH)
VHH: EVQLQASGGGLVQAGGSLRLSCAASGFTNERSQNMGWFRQAPGKEREGVACIQSRVVECWYADSVKGRFTISRDNAKNTVYLQMNSLKPEDTAVYYCAAPRAITWHSFVGEHMCDYWGQGTQVTVSS
koff [6]: 0.000126 s⁻¹
